Experimental data as given in the supplement of paper PMC7125110.
± gives the standard error. This sample holds only a part of the variants without activity.

B1: glmS ribozyme (parent)
chain: AUAAAAGCGCCAGAACUACAGAAAUGUAGUUGACGAGGAGGAGGUUUAUCGAAUUUUCGGCGGAUGCCUCCAAA

Columns and labels:
Details in all cases: with glucosamine-6-phosphate
glucosamine-6-phosphate [1] = variants of: B1; experiment: self-cleavage kobs at 40 uM GlcN6P; higher = faster cleavage; RNA array
How it was run: (§1)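 Tiles bearing barcoded ribozyme variants, transcribed in situ by E. coli RNA polymerase on sequenced MiSeq chips, were imaged over ~14 h at 37 °C using a hybridised Cy3 probe. Glucosamine-6-phosphate was supplied at 40 μM to 10 mM in HEPES/KCl/Mg(OAc)2 buffer. kobs came from one- or two-exponential decay fits to normalised per-tile medians, and weighted Michaelis–Menten fits then provided kcat and KM.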

glucosamine-6-phosphate [2] = variants of: B1; experiment: self-cleavage kobs at 10000 uM GlcN6P; higher = faster cleavage; RNA array
How it was run: as §1

glucosamine-6-phosphate [3] = variants of: B1; experiment: self-cleavage kobs at 160 uM GlcN6P; higher = faster cleavage; RNA array
How it was run: as §1

glucosamine-6-phosphate [4] = variants of: B1; experiment: self-cleavage kobs at 640 uM GlcN6P; higher = faster cleavage; RNA array
How it was run: as §1

glucosamine-6-phosphate [5] = variants of: B1; experiment: self-cleavage kobs at 2500 uM GlcN6P; higher = faster cleavage; RNA array
How it was run: as §1

Row | Variant | self-cleavage kobs at 40 uM GlcN6P (glucosamine-6-phosphate [1]) | self-cleavage kobs at 10000 uM GlcN6P (glucosamine-6-phosphate [2]) | self-cleavage kobs at 160 uM GlcN6P (glucosamine-6-phosphate [3]) | self-cleavage kobs at 640 uM GlcN6P (glucosamine-6-phosphate [4]) | self-cleavage kobs at 2500 uM GlcN6P (glucosamine-6-phosphate [5])
1 | AUAAAAGCGCCAGAACUACAGAAAUGUAGCUCACGAGGAGGAGUUUUAUUGAAUUUUCGGCGGAUGCCUCCAAA [U30C G32C G44U C50U] | < 1e-05 s⁻¹ | < 1e-05 s⁻¹ |  |  | 
2 | AUAAAAGCGCCAUAACUACAGAAAUGUAGUCGCCGAGGAGGAGGUUUCUCGCAUUGUCGGCGGAUGCCUCCAAA [G13U U31C A33C A48C A52C U56G] | < 1e-05 s⁻¹ |  |  |  | 
3 | AUAAAAGCGCCAGAACUACAGAAAUGUAGUUGCCGAGGAGGAGGUUUAUCGAAUUUUCCGCGGAUGCCUCCAAA [A33C G59C] | < 1e-05 s⁻¹ | < 1e-05 s⁻¹ | < 1e-05 s⁻¹ | < 1e-05 s⁻¹ | < 1e-05 s⁻¹
4 | AUAAAAGCUCCACAACUACAGAAAUGUAGUUGACGAGGAGGAGGUUUAUCGAAUUUUCGGCGGAUGCCUCCAAA [G9U G13C] | < 1e-05 s⁻¹ | < 1e-05 s⁻¹ | < 1e-05 s⁻¹ | < 1e-05 s⁻¹ | 
5 | AUAAAAGCGCCAGAACUACAGAAAUGUAGUUGACGAGGAGAACGUUUAUCGAAUUUUCGGCUGAUGCCUCCAAA [G41A G43C G62U] | < 1e-05 s⁻¹ | < 1e-05 s⁻¹ |  |  | 
6 | AUAAAAGCGCCAGAACUACAGAAAUGUAGUCGACGAGGAGGAGGUUUGUCGAAUUUUCGGCGGAUGCCUCCAAA [U31C A48G] | < 1e-05 s⁻¹ |  | < 1e-05 s⁻¹ |  | 
7 | AUAAAAGCGCCAGAACUACAGAAAUGUAGUUGACGAGGAGGAGGUUUUUCGACUUUUCGGCGGAUGCCUCCAAA [A48U A53C] | < 1e-05 s⁻¹ |  | < 1e-05 s⁻¹ |  | 
8 | AUAAAAGCGCCAGAACUACAGAAAUGUAGGUGACGGGGAGGAGGUUUAUCGAAUUUUCGGCGGAUGCCUCCAAA [U30G A36G] | < 1e-05 s⁻¹ | < 1e-05 s⁻¹ | < 1e-05 s⁻¹ | < 1e-05 s⁻¹ | < 1e-05 s⁻¹
9 | AUAAAAGGGCCAUAACUACAGAAAUGUAGUUGACGAGGAGGAGGUUUAUCCAAUUUUCGGCGGGUGCCUCCAAA [C8G G13U G51C A64G] | < 1e-05 s⁻¹ |  |  |  | 
10 | AUAAAAUCGCCAGAACUACAGAAAUGUAGUUGACAAGGAGGAGGUUUAUCGAAUUUUCGGCGGAUGCCUCCAAA [G7U G35A] | < 1e-05 s⁻¹ | < 1e-05 s⁻¹ | < 1e-05 s⁻¹ | < 1e-05 s⁻¹ | < 1e-05 s⁻¹
11 | AUAAAAGCGCCAGAACUACAGAAAUGUAGUUUACGAGAAGGAGGUUUAUCGAAUUUUCGGCGGAUGCCUCCAAA [G32U G38A] | < 1e-05 s⁻¹ | < 1e-05 s⁻¹ |  |  | 
12 | AUAAAAGCGCCUGAACUACAGAAAUGUAAUUGACGAGGAGGAGGUUUAUCGAAUUCUCGGCGGAUGCCUCCAAA [A12U G29A U56C] | 0.000118 ± 2.9e-05 s⁻¹ |  |  | 0.000685 ± 0.00022 s⁻¹ | 0.0018 ± 0.00058 s⁻¹
13 | AUAAAAGCGCCAGAACUACAGAAAUGUAGUUGCCGAGCAGGAGGUUUAUCGAAUUUUCGGCGGAUGCCUCCAAA [A33C G38C] | < 1e-05 s⁻¹ |  | < 1e-05 s⁻¹ | < 1e-05 s⁻¹ | < 1e-05 s⁻¹
